Holding throughout (assay): ITC
The target in experiment [1] is H3K4me0 peptide (ITC, Figures 5D and 5E) (UniProt P68431).
The target of another experiment is H3K4me0K14ac peptide.
The target of the next experiment is H3K4me0 (1-25aa) peptide (UniProt P68431).

As for ZMYND8-PB (ITC) (domain or fragment), in experiment [1], the dissociation constant Kd was 15 µM. That is a double-digit micromolar value.
As to “ZMYND8-PBP (93-426aa) (domain or fragment)”, the Kd in experiment [1] was 7.2 µM; with H3K4me0K14ac peptide, 1 µM.
Substance ZMYND8-PBP F109D (domain or fragment) gave a fold increase of binding activity against ZMYND8-PBP with H3K4me0 (1-25aa) peptide of 11 fold.

The values above are taken from PMC4975651.
